B1: DX178, rat anti-human inhibitory CD200R monoclonal antibody (antibody, V domains shown)
VH: EIQLQESGPGLVKPSQSLSLTCSVTGFTITSGYDWSWIRKFPGNKMEWMGYIGFSGSTVYNPSLNSRISITRDTAKNQFFLQLNSVTTEDTATYHCAKSFVQNTFIYDWFFDFWGPGTMVTVSS
VL: DVRMTQSPSNLAASPGESVSINCKASKNISKYLAWYQQKPGKANRLLICSGSTLQSGTPSRFSGSGFGTDFTLTIRNLEPEDFGLYYCQQHNEFPLTFGSGTKLEIKR
B2: DX184, rat anti-human inhibitory CD200R monoclonal antibody (antibody, V domains shown)
VL: DIVMTQSPTFMSISVGDRVTMSCKASQNVGSNVDWYQQKTGQSPKLLIYKASNRYTGVPDRFTGSGSGTGFTFTITNLQAEDLAVYYCMQSLSFPYTSGAGT
VH: QVQLKESGPGLVQPSQTLSLTCTVSGFSLTNNGVSWVRQPPGKGLEWIAAISSGGGTFYNSALKSRLSISRDTSKSQVFLKMNSLQTEDTAIYFCARDGDWDWYFDFWGPGTMVTVSS
B3: DX182, rat anti-human inhibitory CD200R monoclonal antibody (antibody, V domains shown)
VL: EVQMTQSPSTLTASPGESVSINCKASKNIRSYLAWYQQKPGKPNKLLIYSGSTLHSGTPSRFSGSGFGTDFTLTIRNLEPEDFGLYYCQQHHEYPLTFGSGTKLEIKR
VH: EIQLQESGPGLVKPSQSLSLTCSVTGYTITSGYDWSWIRKFPGNKMEWMGYINYGGSTNYKPSLGSRISITRDTSKNQFFLQLNSVSPEDTATYYCAKYNEYKSYIYDWYFDFWGPGTMVTVSS
B4: DX185, rat anti-human inhibitory CD200R monoclonal antibody (antibody, V domains shown)
VH: EIQLQESGPGLVKPSQSFSLTCSVTGYTITSGYDWSWIRKFPGNRMEWMGYINYSGSTVYNPSLRSRFSITRDTSKNQFFLQLNSVASEDTATYYCAKFEASNTYLYDWYFDFWGPGTMVTVSS
VL: DVQMTQSPSYLAASPGESVSISCKAGKNINTNLAWYQAKPGKTNKVLIHSGSTLQSGTPSRFSGSGFGTDFTLTIRSLEPEDFAVYYCQQHNEFPLTFGSGTKLEIKR

Legend:
[1] = molecular target: fusion protein of the extracellular domain of the human inhibitory receptor CD200R fused to the Fc portion of human IgG1 (human) (UniProt Q8TD46); assay: KinExA, human CD200R-Ig in solution and on the particles
[2] = molecular target: fusion protein of the extracellular domain of the human inhibitory receptor CD200R fused to the Fc portion of human IgG1 (human) (UniProt Q8TD46); assay: SPR (BIAcore 3000), fusion protein captured by anti-human Fc, antibody at 133 and 13.3 nM, bivalent analyte model
[3] = molecular target: human CD200R, full length, expressed on murine mast cells (DT762) (human) (UniProt Q8TD46)
[4] = molecular target: fusion protein of the extracellular domain of the human inhibitory receptor CD200R fused to the Fc portion of human IgG1 (human) (UniProt Q8TD46); assay: SPR (BIAcore 3000), fusion protein captured by anti-human Fc, antibody 0.82 to 600 nM, bivalent analyte model

Sequence of fusion protein of the extracellular domain of the human inhibitory receptor CD200R fused to the Fc portion of human IgG1 (human) (Q8TD46 other isoform, or with tags, fused parts or gaps limits assumed, form in doubt): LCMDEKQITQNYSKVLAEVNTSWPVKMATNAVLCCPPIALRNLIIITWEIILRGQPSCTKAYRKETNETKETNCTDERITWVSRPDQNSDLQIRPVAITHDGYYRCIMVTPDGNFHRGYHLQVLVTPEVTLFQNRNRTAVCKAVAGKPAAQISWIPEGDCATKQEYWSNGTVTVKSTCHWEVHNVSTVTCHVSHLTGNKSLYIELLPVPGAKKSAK
Sequence of human CD200R, full length, expressed on murine mast cells (DT762) (human) (Q8TD46 other isoform, or with tags, fused parts or gaps limits assumed, form in doubt): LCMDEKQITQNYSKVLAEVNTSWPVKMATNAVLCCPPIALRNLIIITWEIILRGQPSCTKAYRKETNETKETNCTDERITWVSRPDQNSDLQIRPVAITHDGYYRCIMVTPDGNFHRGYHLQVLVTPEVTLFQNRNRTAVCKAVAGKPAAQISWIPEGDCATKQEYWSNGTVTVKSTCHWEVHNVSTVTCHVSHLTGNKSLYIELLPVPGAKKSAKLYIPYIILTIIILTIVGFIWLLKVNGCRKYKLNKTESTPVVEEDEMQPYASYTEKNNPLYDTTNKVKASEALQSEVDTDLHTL

| Binder | Kd [1] [nM] | Kd [2] [nM] | IC50 (read off the curve) [3] [µg/mL] | Kd [4] [nM] |
| --- | --- | --- | --- | --- |
| B1 | 0.628 | 1.62 |  |  |
| B2 | 0.026 | 1.93 |  |  |
| B3 | 0.056 | 0.024 | 0.2 | 0.76 |
| B4 | 0.126 | 0.202 |  |  |

From US20100178296A1
